Experimental data as given in article PMC9097459.
Blank lines part the entries; values can stand above or below the molecule they belong to.

Legend:
[1] = target: FlSp NTTrp (Phe 11 to Trp mutant of FlSp NT) (Nephila clavipes); experiment: SEC; Superdex 75 Increase 10/300 GL, 200 μl of 2 mg/ml protein, 20 mM MES, 154 mM NaCl, 1 mM EDTA, pH 5.5; apparent MW from calibrants; monomer to dimer
[2] = target: FlSp NT* (constitutive monomer mutant, Asp 41 and Lys 65 swapped); experiment: SEC-MALS; details: Superdex 75 increase SEC column
FlSp NT_(E79QE84QE119Q) = experiment: SEC-MALS; details: Superdex 75 increase SEC column
[3] = target: FlSp NT_(E79QE84QE119Q) (Nephila clavipes); experiment: SEC-MALS; Superdex 75 Increase 10/300 GL, 50 μg loaded, 20 mM MES, 150 mM NaCl, 1 mM EDTA, pH 5.5, room temperature; monomer to dimer
[4] = target: WT FlSp NT (N-terminal domain of flagelliform spidroin from Nephila clavipes) (Nephila clavipes); experiment: as above
[5] = target: WT FlSp NT (N-terminal domain of flagelliform spidroin from Nephila clavipes) (Nephila clavipes); experiment: SEC; Superdex 75 Increase 10/300 GL, 200 μl of 2 mg/ml protein, 20 mM MES, 154 mM NaCl, 1 mM EDTA, pH 5.5; apparent MW from calibrants; monomer to dimer
[6] = target: T1, FlSp NT_(E79QE84QE119QE130Q); experiment: SEC-MALS; details: chain shown with the change, Superdex 75 increase SEC column
T1 chain: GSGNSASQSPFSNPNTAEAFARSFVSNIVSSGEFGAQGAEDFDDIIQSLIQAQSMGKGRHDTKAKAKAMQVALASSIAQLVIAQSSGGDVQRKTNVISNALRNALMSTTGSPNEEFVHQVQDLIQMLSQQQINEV

[7] = pH 5.5 versus pH 8.0, parent: 2.0

Molecule: FlSp NTTrp (Phe 11 to Trp mutant of FlSp NT) (domain or fragment)
- apparent MW ratio between pH 5.5 and 8.0 [1]: 1.2

Molecule: WT FlSp NT (N-terminal domain of flagelliform spidroin from Nephila clavipes) (domain or fragment)
- stoichiometry N [4]: 2
- apparent MW ratio between dimer (pH 5.5) and monomer (pH 8.0) [5]: 1.3

B1: WT FlSp NT (N-terminal domain of flagelliform spidroin from Nephila clavipes) E79Q; E84Q; E119Q; E130Q (protein)
chain: T1 chain
- other: molecular mass by SEC-MALS ([6]; pH 5.5, parent: 26.0): 20.7 kDa
- other: MW ratio between pH 5.5 and pH 8.0 [6, 7]: 1.6
- other: molecular mass by SEC-MALS ([6]; pH 8.0, parent: 13.1): 13.1 kDa

Now from value to molecule:

- other: molecular mass by SEC-MALS ([2]; pH 5.5, parent: 26.0): 13.4 kDa
- other: MW ratio between pH 5.5 and pH 8.0 [2, 7]: 1
- other: molecular mass by SEC-MALS ([2]; pH 8.0, parent: 13.1): 14.1 kDa
Molecule: WT FlSp NT (N-terminal domain of flagelliform spidroin from Nephila clavipes) D41K; K65D

- other: molecular mass by SEC-MALS (FlSp NT_(E79QE84QE119Q); pH 5.5, parent: 26.0): 24.4 kDa
- other: molecular mass by SEC-MALS (FlSp NT_(E79QE84QE119Q); pH 8.0, parent: 13.1): 14.3 kDa
Molecule: WT FlSp NT (N-terminal domain of flagelliform spidroin from Nephila clavipes) E79Q; E84Q; E119Q

- MW ratio between pH 5.5 and 8.0 [3]: 1.7
Molecule: FlSp NT_(E79QE84QE119Q) (domain or fragment)
